The target in this experiment is TGF-βRII-Fc (muTGFbRII-mFc) (mouse (from the printed name muTGFbRII-mFc)) (UniProt Q62312). Nature of the experiment: SPR; Biacore T100; TGF-βRII-Fc captured (~50 RU) by an anti-mouse Fc antibody amine-coupled to a CM5 chip; TGF-β2 injected at 0.04-90 nM (0.12-90 nM used for the fit); HBS-EP with 350 mM NaCl and 0.5 mg/mL BSA; steady-state affinity model. In general terms: In SPR one partner is held on a chip, and binding of the other changes the refractive index at the surface.
Sequence of TGF-βRII-Fc (muTGFbRII-mFc) (mouse (from the printed name muTGFbRII-mFc)) (Q62312 24-166): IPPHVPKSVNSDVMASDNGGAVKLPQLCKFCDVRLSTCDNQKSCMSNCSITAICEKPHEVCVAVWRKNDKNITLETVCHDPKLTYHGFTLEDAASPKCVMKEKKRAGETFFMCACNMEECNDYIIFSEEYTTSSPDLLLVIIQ

Drawing on publication PMC9714796, this text covers Kd for 1 substance.

pKd: −log10 of the molar value.

In the case of “Transforming growth factor-β2 (TGF-β2) (ligand)”, the pKd is 7.94.

By pKd is commonly meant the Kd on a negative log10 scale, so that one unit is a factor of ten. The low end stands for a large Kd, the high end for a small Kd.
